Our source for the IC50 values is PMC2596764 (Nature immunology, 2008).

For orientation: IC50 means the midpoint of a concentration-inhibition curve. High values mean lower potency, low ones higher potency.

Assay [1] addresses HLA-A*0201 (HLA-A2) heavy chain refolded with β2-microglobulin. Briefly: radioligand binding.
Assay [2] concerns the target HLA-A2-R65A heavy chain refolded with β2-microglobulin. Briefly: radioligand binding.
For the next assay, the target named is HLA-A2 (Homo sapiens, UniProt P04439, D140Y/D185E/D98H/E176V/E277Q/G131W/G231S/I119V/I121R/I166T/I218V/L300P/L318F/N151K/N90K/P208A/P217A/Q86G/Q94H/R138H/R169H/T345S). Briefly: Competitive peptide binding assay to purified HLA-A2.
Assay [3] concerns the target HLA-A2-R65A (Ala substitution for Arg65) (Homo sapiens, UniProt P04439, D140Y/D185E/D98H/E176V/E277Q/G131W/G231S/I119V/I121R/I166T/I218V/N151K/N90K/P208A/P217A/Q86G/Q94H/R138H/R169H). Briefly: Competitive peptide binding assay to mutant HLA-A2-R65A.
Assay [4] addresses HLA-A*0201 (HLA-A2) heavy chain refolded with β2-microglobulin. Briefly: radioligand binding. This is another data set of the same source.
Assay [5] deals with HLA-A2-R65A heavy chain refolded with β2-microglobulin. Briefly: radioligand binding. This is another data set of the same source.

Like-named read-outs stand apart in the source and are kept apart here. Non-standard residues stand in square brackets, D forms with d. Residues, ends and D or L forms follow the SMILES beside them. No end group written: not given here. pS = N[C@@H](COP(=O)(O)O)C(=O)O

Consider AQApSIELPSM (peptide), for which the IC50 in assay [1] worked out at 58.7 nM; in assay [2], 972 nM.

`CC[C@H](C)[C@H](NC(=O)[C@H](COP(=O)(O)O)NC(=O)[C@H](C)NC(=O)[C@H](CCC(N)=O)NC(=O)[C@H](C)N)C(=O)N[C@@H](CCC(=O)O)C(=O)N[C@@H](CC(C)C)C(=O)N1CCC[C@H]1C(=O)N[C@@H](CO)C(=O)N[C@@H](CCSC)C(=O)O` [AQApSIELPSM]: the IC50 is 58.7 nM at HLA-A2 and 972 nM in assay [3].

In turn, `CC[C@H](C)[C@H](NC(=O)[C@H](CO)NC(=O)[C@H](C)NC(=O)[C@H](CC(C)C)NC(=O)[C@@H](N)CCCNC(=N)N)C(=O)N[C@@H](CCC(=O)O)C(=O)N[C@@H](CC(C)C)C(=O)N1CCC[C@H]1C(=O)N[C@@H](CO)C(=O)N[C@H](C(=O)O)C(C)C` (H-RLASIELPSV-OH) registered a 50% inhibitory concentration (IC50) at HLA-A2 of 0.9 nM.

At HLA-A2, `CSCC[C@H](NC(=O)[C@H](CC(=O)O)NC(=O)[C@H](CC(C)C)NC(=O)[C@H](Cc1ccccc1)NC(=O)[C@H](COP(=O)(O)O)NC(=O)[C@H](CC(=O)O)NC(=O)[C@H](CCSC)NC(=O)[C@@H](N)CCCCN)C(=O)N[C@@H](CCC(N)=O)C(=O)N[C@@H](CC(C)C)C(=O)O` [KMDpSFLDMQL] (H-KMD[pS]FLDMQL-OH) registered an IC50 of 3.4 nM.

Molecule `CC(C)[C@H](NC(=O)CNC(=O)[C@H](CO)NC(=O)[C@@H](NC(=O)[C@@H]1CCCN1C(=O)[C@H](COP(=O)(O)O)NC(=O)[C@H](C)NC(=O)[C@@H](NC(=O)[C@@H](N)CCCNC(=N)N)C(C)C)[C@@H](C)O)C(=O)O` [RVApSPTSGV] (H-RVA[pS]PTSGV-OH) yielded an IC50 on HLA-A2 of 178 nM.

On to `CC[C@H](C)[C@H](NC(=O)[C@H](CO)NC(=O)[C@H](C)NC(=O)[C@H](CCC(N)=O)NC(=O)[C@@H](N)CCCNC(=N)N)C(=O)N[C@@H](CCC(=O)O)C(=O)N[C@@H](CC(C)C)C(=O)N1CCC[C@H]1C(=O)N[C@@H](CO)C(=O)N[C@@H](CCSC)C(=O)O` (H-RQASIELPSM-OH), for which the IC50 at HLA-A2 turned out to be 1770 nM; in assay [3], 2140 nM.

`CC(C)C[C@H](NC(=O)CNC(=O)[C@H](Cc1ccc(O)cc1)NC(=O)[C@@H](NC(=O)[C@@H]1CCCN1C(=O)[C@H](COP(=O)(O)O)NC(=O)[C@H](Cc1ccccc1)NC(=O)[C@@H](NC(=O)[C@@H](N)CCCNC(=N)N)[C@@H](C)O)[C@@H](C)O)C(=O)O` [RTFpSPTYGL] (H-RTF[pS]PTYGL-OH) yielded an IC50 on HLA-A2 of 32.5 nM.

Regarding `CC[C@H](C)[C@H](NC(=O)[C@H](CC(C)C)NC(=O)[C@@H](N)CCCCN)C(=O)N[C@@H](CC(=O)O)C(=O)N[C@@H](CCCNC(=N)N)C(=O)N[C@H](C(=O)N[C@@H](CCC(=O)O)C(=O)N[C@@H](COP(=O)(O)O)C(=O)N[C@@H](CC(C)C)C(=O)O)[C@@H](C)O` [KLIDRTEpSL] (H-KLIDRTE[pS]L-OH), the concentration for half-maximal inhibition (IC50) on HLA-A2 amounted to 62.4 nM.

Molecule `CC[C@H](C)[C@H](NC(=O)[C@H](CO)NC(=O)[C@H](CC(C)C)NC(=O)[C@H](COP(=O)(O)O)NC(=O)[C@H](C)NC(=O)[C@H](CCC(N)=O)NC(=O)[C@@H](N)CCCNC(=N)N)C(=O)N[C@@H](CO)C(=O)N[C@H](C(=O)O)C(C)C` [RQApSLSISV] (H-RQA[pS]LSISV-OH) returned an IC50 at HLA-A2 of 38.5 nM.

Consider `CC[C@H](C)[C@H](NC(=O)CNC(=O)[C@H](COP(=O)(O)O)NC(=O)[C@H](CC(=O)O)NC(=O)[C@H](CC(C)C)NC(=O)[C@@H](N)Cc1ccc(O)cc1)C(=O)N[C@@H](Cc1c[nH]cn1)C(=O)N[C@@H](CO)C(=O)NCC(=O)N[C@@H](C)C(=O)O` [YLDpSGIHSGA] (H-YLD[pS]GIHSGA-OH), for which the concentration for half-maximal inhibition (IC50) at HLA-A2 worked out at 146 nM.

As to `CC(C)C[C@H](NC(=O)CN)C(=O)N[C@@H](CC(C)C)C(=O)NCC(=O)N[C@@H](COP(=O)(O)O)C(=O)N1CCC[C@H]1C(=O)N[C@H](C(=O)N[C@@H](CCCNC(=N)N)C(=O)N[C@@H](C)C(=O)O)C(C)C` [GLLGpSPVRA] (H-GLLG[pS]PVRA-OH), the IC50 at HLA-A2 is 169 nM.

With `CC[C@H](C)[C@H](NC(=O)[C@H](COP(=O)(O)O)NC(=O)[C@H](C)NC(=O)[C@H](CCC(N)=O)NC(=O)[C@@H](N)CCCNC(=N)N)C(=O)N[C@@H](CCC(=O)O)C(=O)N[C@@H](CC(C)C)C(=O)N1CCC[C@H]1C(=O)N[C@@H](CO)C(=O)N[C@@H](CCSC)C(=O)O` [RQApSIELPSM] (H-RQA[pS]IELPSM-OH), the IC50 is 11.2 nM on HLA-A2 and 20 nM in assay [3].

Regarding `CSCC[C@H](NC(=O)[C@@H]1CCCN1C(=O)CNC(=O)[C@H](COP(=O)(O)O)NC(=O)[C@H](Cc1ccc(O)cc1)NC(=O)[C@@H](NC(=O)[C@@H](N)CCCNC(=N)N)[C@@H](C)O)C(=O)N[C@@H](CC(N)=O)C(=O)N[C@@H](CCCCN)C(=O)N[C@H](C(=O)O)C(C)C` [RTYpSGPMNKV] (H-RTY[pS]GPMNKV-OH), on HLA-A2, the IC50 stood at 117 nM.

Take `CC[C@H](C)[C@H](NC(=O)[C@H](CO)NC(=O)[C@H](C)NC(=O)[C@H](CCC(N)=O)NC(=O)[C@H](C)N)C(=O)N[C@@H](CCC(=O)O)C(=O)N[C@@H](CC(C)C)C(=O)N1CCC[C@H]1C(=O)N[C@@H](CO)C(=O)N[C@@H](CCSC)C(=O)O`: the figures for the IC50 (at HLA-A2; in assay [3]) were 1180 nM and 1060 nM, respectively.

B1: RQApSLSISV (peptide)
peptide: RQA[pS]LSISV
In turn, B1 showed an IC50 in assay [4] of 38.5 nM.

B2: RTFpSPTYGL (peptide)
peptide: RTF[pS]PTYGL
Consider B2, for which the half-maximal inhibitory concentration (IC50) in assay [4] was determined as 32.5 nM.

B3: RTYpSGPMNKV (peptide)
peptide: RTY[pS]GPMNKV
Regarding B3, the IC50 in assay [4] stood at 117 nM.

B4: … (non-phosphorylated counterpart of GLLGpSPVRA) (peptide)
peptide: GLLGSPVRA
modifications: not fully specified
Molecule B4 came in with an IC50 in assay [4] of 219 nM.

B5: … (non-phosphorylated counterpart of RVApSPTSGV) (peptide)
peptide: RVASPTSGV
modifications: not fully specified
With B5, the half-maximal inhibitory concentration (IC50) in assay [4] was found to be 731 nM.

B6: KLIDRTEpSL (peptide)
peptide: KLIDRTE[pS]L
With B6, the 50% inhibitory concentration (IC50) in assay [4] was 62.4 nM.

B7: YLDpSGIHSGA (peptide)
peptide: YLD[pS]GIHSGA
B7 displayed an IC50 in assay [4] of 146 nM.

B8: … (non-phosphorylated counterpart of YLDpSGIHSGA) (peptide)
peptide: YLDSGIHSGA
modifications: not fully specified
As for B8, the IC50 in assay [4] turned out to be 83.5 nM.

B9: … (non-phosphorylated counterpart of RTYpSGPMNKV) (peptide)
peptide: RTYSGPMNKV
modifications: not fully specified
Consider B9, for which, in assay [4], the half-inhibitory concentration (IC50) came out at 793 nM.

B10: GLLGpSPVRA (peptide)
peptide: GLLG[pS]PVRA
B10 registered an IC50 in assay [4] of 169 nM.

B11: KMDpSFLDMQL (peptide)
peptide: KMD[pS]FLDMQL
Take B11: the IC50 in assay [4] was 3.4 nM.

B12: … (non-phosphorylated counterpart of KMDpSFLDMQL) (peptide)
peptide: KMDSFLDMQL
modifications: not fully specified
In the case of B12, the half-maximal inhibitory concentration (IC50) in assay [4] worked out at 11.4 nM.

B13: RQApSIELPSM (peptide)
peptide: RQA[pS]IELPSM
For B13, the IC50 in assay [4] turned out to be 11.2 nM; in assay [5] it was 20 nM.

B14: RVApSPTSGV (peptide)
peptide: RVA[pS]PTSGV
B14 gave an IC50 in assay [4] of 178 nM.

B15: … (non-phosphorylated counterpart of RTFpSPTYGL) (peptide)
peptide: RTFSPTYGL
modifications: not fully specified
Regarding B15, the concentration for half-maximal inhibition (IC50) in assay [4] turned out to be 408 nM.

B16: … (non-phosphorylated counterpart of KLIDRTEpSL) (peptide)
peptide: KLIDRTESL
modifications: not fully specified
In assay [4], B16 showed a 50% inhibitory concentration (IC50) of 102 nM.

B17: … (non-phosphorylated counterpart of RQApSLSISV) (peptide)
peptide: RQASLSISV
modifications: not fully specified
In turn, B17 returned an IC50 in assay [4] of 284 nM.
